# According to the DeepSol protein solubility set:
# Assay: soluble on expression in E. coli; label from the status in PepcDB or PDB records
row,Sequence,soluble on expression in E. coli
1,MGSDKIHHHHHHMSPKVFVSHASEDKDRFVLQFAERLRQKGIDAWLDKWEMLPGDSLVDKIFEEGIKEAKAVIVVLSKFSVEKPWVREELNAAFVKRINNGSKLIPIVIDDCEVPEALKSTLWEPIADLSAYDKSFDRIVASIYGANDRPPIGPQPEYVQSFVQAIGNLNNIDSLVLRFSCEEVLKTGNAFVNPERVFLKDDKPILPEDELKDSLEILDGGGYIKLMRTLGGGFFPYQITTYGFDVYANASIPDYQGKIAAVVSAIVNEKLMSNAKIQERLKENKIIVDHILNVLENKGHIKQSKMIGGLSEIFNVSPSLKRALSGG,not soluble
2,MNYYSEKIEVVKLADQVAAKLQQLIGSGEYKKGDKIPTEPELMARFGVGRSTVRESVRILANAGLLSVLQGKGTFVQDTTVVAEPLHQRLRRANNKELNEVRHMLEITMVQKAAENRTEKEVKQMRTLLNQRRRAIEEQLQDECLNADIAFHVVIAEASKNQVLIDLYKTFSKVISEYFQTEYPDTKAYKRSQALHEKLCDAIATKESKKAAEYMSQILSLD,not soluble
3,MNDGNSRTPYNSLYKPLNLIKSKPDGCCKHNGQCPYGKNQAESVDDGNSRTPYNSIYEPLSLNKSKPDSQCSNGKKPADDEYVNLLLPQSKEEQVAEKLADKLRKLEVKESKGKRRGSKERKKKKPEPVESTYESLASIEGSTNFSGPVTTESLESNVKCHHASQTAYIGVYSSADAEAQVKNRGEFALYHQFEVGNRLDHLTATLPLMLVYYTTTKKHRHYPVRKSGDNGTVQYSVDCGYPIVRKHFSINQLVLYYKTFGSIQMKQEDICSEEFSWWLE,not soluble
4,PFMDQSGGGVTFCGGEPLLHPEFLIDILKRCGQQGIHRAVDTTLLARKETVDEVMRNCELLLIDLKSMDSTVHQTFCDVPNELILKNIRRVAEADFPYYIRIPLIEGVNADEKNIKLSAEFLASLPRHPEIINLLPYHDIGKGKHAKLGSIYNPKGYKMQTPSEEVQQQCIQILTDYGLKATIGG,soluble
5,MGSDKIHHHHHHAIGFGLSYGTEIESIGLGLKYQYNITNPIRLEPSLNYFIENDNVSMLDINMNLHYLCPVGRSVKLYPLFGFTFSNWMFDLGDGFDIDVDGDHIHIDKDDDNHNECRVGVNIGGGADFALTSSWIMNFELRYQLVSDFDQAVFNLGFAYRF,not soluble
6,MTFEKIEEAYQLLLENCQLIENDLKTHIYDAIVEQNSFYLGAEGASPQVAQNSDKLKALCLTKEEWRKAYQFLFIKAAQTEQLQANHQFTPDAIGFILLYLLEQLSDKDSLEVLEIGSGTGNLAQTLLNNTSKSLDYVGIELDDLLIDLSASIAEIMDSSAHFIQEDAVRPQLLKESDIVISDLPVGYYPNDDIAKRYKVASSDKHTYAHHLLMEQSLKYLKKDGFAIFLAPVNLLTSPQSQLLKQWLKDYAQVVTLITLPDSIFGHPSNAKSIIVLQKQTDHPMETFVYPIRDLKLAENIHDFMENFKKWKLSNVN,not soluble
7,SNAMNFFTSPFSGIPLDQQVTNPNIIVGKHSYYSGYYHGHSFDDCVRYLHPERDDVDKLVIGSFCSIGSGAVFMMAGNQGHRSDWISTFPFFYQDNDNFADARDGFTRSGDTIIGHDVWIGTEAMIMPGVKIGHGAIIASRSVVTKDVAPYEVVGSNPAKHIKFRFSDVEIAMLLEMAWWNWPESWLKESMQSLCSSDIEGLYLNWQSKART,soluble
8,MSLAATGNASKPSLNSFYADGLGQLRNGLFSCFQPVFGYFGTKTTVEIEKSEDELWEIPFDAISELEWLGSGSQGAVFRGQLENRTVAVKKVNQLKETEIKHLRHLRHQNIIEFLGVCSKSPCYCIVMEYCSKGQLCTVLKSRNTITRELFAQWVKEIADGMHYLHQNKVIHRDLKSPNILISAEDSIKICDFGTSHMQKKMDSTMMSFCGTVSWMAPEMIKKQPCNEKVDVYSFGVVLWEMLTRETPYANIAQMAIIFGVGTNILSLPMPEEAPKGLVLLIKQCLSQKGRNRPSFSHIRQHWEIFKPELFEMTEEEWQLAWDSYREFAKCIQYPSTVTRDHGGPKSAFAMEEEIQRKRHEQLNHIKDIRNMYEMKLKRTNKMYDKLQGCFTELKLKESELAEWEKDLTEREGHHHHHH,not soluble
9,MSLAMKKHLFTLTLSSVLAIPAVSHAEFKGGFADIGIHYLDWTSRTTEKSSTKSHKDDFGYLELEGGANFSWGEMYGFFDWENFYNDRHDKPGSEQRYTFKNTNRIYLGDTGFNLYLHAYGTYGSANRVNFHDDMFLYGIGYNFTGSGWWFKPFFAKRYTDQTYYTGDNGYVAGWVAGYSFMLGSEKFTLTNWNEYEFDRDATYAAGNGGKEGLNGAVALWWNATSHITTGIQYRYADDKLGEDFYQDAIIYSIKFNFEGHHHHHH,not soluble
10,MAHHHHHHSLRVVSGEFGGRPLKTLDGKITRPTSDKVRGAIFNMIGPYFNGGRVLDLFAGSGGLAIEAVSRGMSAAVLVEKNRKAQAIIQDNIIMTKAENRFTLLKMEAERAIDCLTGRFDLVFLDPPYAKETIVATIEALAAKNLLSEQVMVVCETDKTVLLPKEIATLGIWKEKIYGISKVTVYVNEG,soluble
11,MRYNQSDNKPFEEVLEASLSRRSILKGGLGISAMTAFGAFGLAGCNSSSSGTSASNGSGVSKAVLNFDSIPGSLTDAVSIPQGYTAQVLVPWGTPLNAQGSAWKNDGSNTSSDQLNALGMHHDGMHFFPLNDSTTDGLLCINHEYIDTSALHPNGPTVANGVRTIVDEVRKEINAHGVSVVRIQLEDNMWKLADTDPLNRRYTGATVMDLSGPVAHTALTVTRFSPDGSQARGTLNNCGNGYTPWGTYLTCEENWPGYFVNAGTRTEEQDRIGVDDKSTRYLWETLAGNSEERLDEFTRFNVAPTGTSSADDYRNEANGHGYIVEIDPYTQNSRAKKRTALGRFRHEGCAFGKLEAGKPVVFYSGHDSRFEYLYKFESAAAWDPADANPANRLATGDKYMDEGTLYVARFNEDSTGTWLPLTLDSVTTSGGTLADHFNSLAEIIINTAGAADLVGATPMDRPEWCSVDPFTGSVYLTLTNNTRRTDETNPANPRLNNKFGHVIRWDEGTSATDFTWDIFVFGSPANGDADTNRSGLNELNQFASPDGLAFDGRGILWIQTDNGADEVTSYTNDQMLAVVPSKLTNENGAQAVIGADNQAELKRFFVGPNGCEVTGFTISPDYKSLFVNIQHPGNWPYSDDAAQETPAGTTVRPRAATVVIRREDGGEIAVLEHHHHHH,soluble
12,MGSDKIHHHHHHMLRVKNLRLKYPNGDRKIFDNLNLEIKNKEKVLLLGPSGSGKSTLLNVLSGIVPNLIELPMKYDELNIDHDSGVIFQDPDNQFCMPKVYEELAFVLENRNIPRSEMDQEIENALKSVDLNVTHKTYVNNLSGGMKQKLAIVETILQKSKTLFLDEPTAMLDVKATEDLWKKLINLWKDQTVLIVEHKVEHIWQHVDRVLLLNYDGEIVADDTPEQILDHYEALLTEYGVWHPRAWHSAPRPIPLPNQTKNLLFHFDDGQIIRGKKTLFSSKELKLYSGEWLTITGKNGAGKTSLLEAMLQLIKYEGDMFYRDQLLSKIKQAAKHMYLVYQNPELQFITNSVYDEVYIHYNHLDPKHANDETMDLLKLLHLDQVKDHHPFEISTGQKRRLSVATALSSKAEIILLDEPTFGLDSHNTFQLIKLFQERVNQGQTIIMVTHDPEIIKRYPTRRLRVEDGCLKEMEGEHIV,not soluble
13,LGECLADLAVDALIDEAELSPKPALVDRRGNGAHADLHLGLMQASALSLWPCFKEMADAAQRHGRIDARLRGVLGQLGRDGEAAMLRTTEGVNTHRGAIWALGLLVAAAALEPRRTQAGEVAARAGRIALLDDPAAAIGDSHGERVRRRYGVGGAREEARLCFPRAVRHGLPQLWRSREGGAGEQNARLDALLAIMSVLDDTCVLHRAGRVGLAAMQDGARAVLAAGGSASLAGRRRLCELDRRLLALNASPGGAADLLAACLFLDRLPAVSGGWAGSL,not soluble
14,TPDWRVSLRGSLAYNRNKVISLYYTDRLYTSETALTPDYEVGKAYNMLYGLKSLGINPITGLPVFQGADGSEISPTQNPARENFIVLGHSTPPYSGTFNLNFSYRNFDLDMDFYYVFGGIKPYNYSYVRSADSANKNAIQKQLENMWFHRGDEGKIYHSPFYISPANASLQQPNTETVGKSDYLKLAMLSLRYRVPHTFLEKNCHFIKYANIAFQASNLFMITPYKESDPETGSLAGAMQPVLTINLSLTF,not soluble
15,MGSDKIHHHHHHMAESIRPLTKNDRQQFVTVMTKVFAKDPLFLYIFGDLYNDHRAQRRARTFMGFIFDKSMERQAEAVWGLFDKDTLLGTYVVESCPAETNHSFAELYRLMILIFRLSLQLPPKMTWQLNRYMRVTRAHAPSIPHHYLTIIGVRKEAQGAGRGRNLLEHIFGTIGSGELSLDTEKKENVTLYKKFGFVLTDVVKCGPINVYCMRKTIRPRQKN,not soluble
16,MGSDKIHHHHHHMKVLLYLEAENYLRKSGIGRAIKHQAKALSLVGQHFTTNPRETYDLVHLNTYGLKSWLLMIKAQKAGKKVIMHGHSTEEDFRNSFIFSNLLSPWFKKYLCHFYNKADAIITPTLYSKSLIESYGVKSPIFAVSNGIDLEQYGADPKKEAAFRRYFDIKEGEKVVMGAGLFFLRKGIDDFVKVAQAMPDVRFIWFGETNKWVIPAQVRQMVNGNHPKNLIFPGYIKGDVYEGAMTGADAFFFPSREETEGIVVLEALASRQHLVLRDIPVYYGWVDQSSAELATDIPGFIEALKKVFSGASNKVEAGYKVAQSRRLETVGHALVDVYKKVMEL,not soluble
17,MATDTTVQLRAGWQGRFYEDFAVGDVYKHPYGRTVTETDNVWFTNLTMNANPMHFNAAYASGTEFDERLVNGLFVIALSVGMSVVDVSANATANLGYDDIQHHAPVFHGDTLFAESEVLSKRESESRPHVGMVTTELRTYTQDGELVLSLERTPMVRKRGAADPLEHHHHHH,not soluble
18,MVKSLQLAHQLKDKRILLIGGGEVGLTRLYKLMPTGCKLTLVSPDLHKSIIPKFGKFIQNKDQPDYREDAKRFINPNWDPTKNEIYEYIRSDFKDEYLDLENENDAWYIIMTCIPDHPESARIYHLCKERFGKQQLVNVADKPDLCDFYFGANLEIGDRLQILISTNGLSPRFGALVRDEIRNLFTQMGDLALEDAVVKLGELRRGIRLLAPDDKDVKYRMDWARRCTDLFGIQHCHNIDVKRLLDLFKVMFQEQNCSLQFPPRERLLSEYCSS,soluble
19,MELAQEARELGCWAVEEMGVPVAARAPESTLRRLCLGQGADIWAYILQHVHSQRTVKKIRGNLLWYGHQDSPQVRRKLELEAAVTRLRAEIQELDQSLELMERDTEAQDTAMEQARQHTQDTQRRALLLRAQAGAMRRQQHTLRDPMQRLQNQLRRLQDMERKAKVDVTFGSLTSAALGLEPVVLRDVRTACTLRAQFLQNLLLPQAKRGSLPTPHDDHFGTSYQQWLSSVETLLTNHPPGHVLAALEHLAAEREAEIRSLCSGDGLGDTEISRRAGGLWVCWSPSGAPS,soluble
20,MRTMPDAPALHLTAIDSHAHVFSRGLNLASQRRYAPNYDAPLGDYLGQLRAHGFSHGVLVQPSFLGTDNRYLLSALQTVPGQLRGVVMLERDVEQATLAEMARLGVRGVRLNLMGQDMPDLTGAQWRPLLERIGEQGWHVELHRQVADIPVLVRALQPYGLDIVIDHFGRPDARRGLGQPGFAELLTLSGRGKVWVKVSGIYRLQGSPEENLAFARQALCALEAHYGAERLMWGSDWPHTQHESEVSFGSAVEQFEALGCSAQLRQALLLDTARALFGFELEHHHHHH,soluble
21,MAHHHHHHMVSNVADVRQINLTDSSNFLLMACDGLWDVVENEEATQFVRDFLSYTPDVGSSPEATKRALNNCCQKLAEFAVDRGSTDNVSVMLLFFHDVADVVAGFDKPVGAVVSPPASQVLSPRLTGPSRGIPFGSSMLDGGLHTSSGTSGTRRPSFGSVSSLHGRGRSIW,not soluble
22,MRYVIAVKSPIYGKQGAFLAYQFAESLIKKEHEISQIFFFQDGVSNGNALVYPANDEVNLQKHWQMFSITYNVPLHLCVAASQRRGVVDNLTTPTTAHYNLAEGFTIAGLGEFIAASLNADRVITL,soluble
